experiment: label from the status in PepcDB records

Sequence	protein production
MKGIKSACALIVLTFFSALTQAATAVEMAKQAYFLIERDPLDLDQRNEASYLIQRANVLDGDEPWVAVAQSRLTLVSGYKVGQRHDRRAYEESAVSTARQQAERAVRNGPNLAMAHVQLAMVLIIQGELRTAWDHLNTADSLDEQSFYPWYLRTVIAIHHKDEKFAAEGFKEIESRASQKYQKRLLLHERMRLAKATKNLEERDRLHRKMIELDPDYAYAWGNYGSFLLGQKRYREAVHNLERAVELKPYGLAVSQLAEARRKLNQAF	failed
MKGKLGLFAAMLVLAGCATASEQLRVYTEQYPPYNMTTNGQPFAHSESEITGLCTDVLKAVLENAKVDYSIKLRDLSYGMNRAQRHEDHGIYCVSKTDEREPFFEWVGPLSSIKWTLFAKPGSSIKLDDLEDARDYRIGGYKGDVMTGYLEDKGFDVSAITNNGLNAKRLEQDQIDLWVADGLAGPYLAADASDVTGLEAVLVFRETPMYLAINKDSDPDLIKALNTAYQAMQESGEIDTISRSYGL	failed
MKGKLQHIHPLGMSIILGTLFARFATSMSIPFLAIYLTTVKGVSAGMTGAIIGTSALVGVFASFIGGNLSDRFGRKTIMLWSMIVWIFVFIGFSLADHVLSFFLLNALNGLCRSFFEPTSRALLSDLTKPEYRLLVYNLRYGAINVGVAIGPIVGLQIGSAKSTIPFLVAAGVYILYTAILAFQFKKYPMEKKKVSTEKPVTMLNAMRILRKDIVFLVALVGIILSNCGFSHLTTTVSQYFANAHIFEDGVKLFSYMLALNAIVVVIIQYPVIQMCKKYTPLTSIMVGTLFVSGGLFGFGIVESMLGAAVCTIIFTIGEVLMFSMTDVFIDDIAVAHLKGTYFGAMGFSGIGAVIGPWFGGVLLDYYGYQNGFAVFSALAIFSTVAFPVLLVTKGLSKKRYDRNSNIEMHAK	failed
MKGSLIIVGFFVLGALCGVYHLIPYDFTQSKLSFYALCALMFSVGVSVGNDPQTLRNFRSLNPRLIFLPVMTILGTLAGCAVVSLFLS	failed
MKGSRKGESRAKESKPREPGTRRCAKCGRLDFILKKKMGIKSGFTFWNLVFLLTLSCVKGFIYTCGGTLKGLNGTIESPGFPYGYPNGANCTWVIIAEERNRIQIVFQSFALEEEYDYLSLYDGHPHPTNFRTRLTGFHLPPPVTSTKSVFSLRLTSDFAVSAHGFKVYYEELQSSSCGNPGVPPKGVLYGTRFDVGDKIRYSCVTGYILDGHPQLTCIANSVNTASWDFPVPICRAEDACGGTMRGSSGIISSPGFPNEYHNNADCTWTIVAEPGDTISLIFTDFQMEEKYDYLEIEGSEPPTIWLSGMNIPPPIISNKNWLRLHFVTDSNHRYRGFSAPYQVKKAIDFKSRGFKLFPGKDNSNKFSLLNEGGIKTASNLCPDPGEPENGKRFGSDFR	failed
MKGTVGELGEFGLIRELTSRLTTTPAVRVGPGDDAAVVAAPDRRVVASTDILVEGRHFRRDWSTAYDVGRKAAAQNLADIAAMGAVPTALLLGLVVPAELPVTWPTELMDGLRDECQVAGASVVGGDVVRGDTITVSITALGDLRNQEPVTRAGAQPGDLVAVTGWLGWSAAGFAVLSRGFRSPRAFVEAHRRPEPPYHAGPAAAGLGATAMCDVSDGLIADLGHIAEASKVRIDVRSGQIDIPSQMNDIGQAVGVDPMQWVLTGGEDHAIVATFPPDVKLPARWKVIGEVLNPSALPQVTVDGAPWTSKGGWDHFGGDVES	failed
MKHIHIIGIGGTFMGGIAAIAKEAGFKVSGCDAKMYPPMSTQLEALGIGVHEGFDAAQLEEFQADIYVIGNVARRGMDVVEAILNRGLPYISGPQWLAENVLHHHWVLGVAGTHGKTTTASMLAWVLEYAGLAPGFLIGGVPENFGVSARLPQTPRQDPNSKSPFFVIEADEYDTAFFDKRSKFVHYRPRTAVLNNLEFDHADIFADLGAIQTQFHHLVRTVPSEGLIVCNGQQQSLQDTLDKGCWTPVEKFGTGHGWQIGEVNADGSFDVLLDGKKAGHVAWDLMGGHNRMNALAVIAAARHAGVDVQTACEALGAFKNVKRRMEIKGTANGITVYDDFAHHPTAIETTIQGLRQRVGGARILAVLEPRSNTMKLGTMKSALPASLKEADQVFCYAGGADWDVAEALAPLGCRLRVGKDFDTFVAEIVKNARTGDHILVMSNGGFGGIHTKLLDALR	not failed
MKHLPKHLRPRWRYLAVGIETWPNASFGRRAFQREVWYAAQNLLGDTGSAETDMTVLQFHDYDGTAEAIVRTRRGQTNPARAALTCLDSVDDDDVRVRVRGISGTVRACEEKYIRGPPEFTEQRHVVFENADRSATVRPPRYDVETASDGAFVGATALDFR	failed
MKHYTVAINGLPQEFEGFTILHLTDLHAKKYGDQQDKLIRLINRQNFDMVAMTGDFIDKDNPDLEPTLELIQGLAAKPIFFVPGNHEWRYDFSIKSSLEEHGVKILDNKNAELARGDARLWIAGVDDPYLHRDKLEEALHGIADAQPKLLLAHAPNIFKPAAESGVELVLVGHTHGGQVRLPLIGAIVAPGQGLFPQYDYGHFTAGSTNMIVNGGLGESTLPLRFCSRPEIVLVKLVSAPLEHHHHHH	failed
MKIAYLGPSGSFTHNVALHAFPAADLLPFENITEVIKAYESKQVCFAIVPVENSIEGSVHETFDYLFHQAKIEAVAEIILPIKQQLMSTSADKTIETIFSHPQAIAQGKQYIRSHYPDVKIEMTASTAYAARFVAEHPEENYAAIAPYAAADEYHLSIIAKDIQEIDENYTRFWVLGDETP	failed
MKICAVVVTYNRKDLLVECLEALRRQTGPLDAIYIIDNASTDGTPHLLMEGGYIDDPDGSVKNLPDHHGRSLKIVYVRLNENTGGAGGFYKGVRRAFHDEYDWIWLMDDDVEPEEYTLEKLLKASERIPEDVSAVAPVRFFQGSLFISETKTFNFRNPLKHFTYDFITDDDLKEEYFKISAISFEGLLIKREAIERIGFPDKSLFIIADDTDYAIRLRDYGPIYMVSGARLIKKVAAEPDFNWKGFYHLRNVIYLDRKYGENILVRYLRPLRTLIIVTYQCLKYKPSGFKYLLKAFWEGYTLKRGKTVKPGEFLEHHHHHH	not failed
MKIEAASEQHLSVYRRYFRACRDEDFEYYRGLPDDADGWLLKVVQHADGEALPEGWVPCQTWFLLSDDGEIAGAARLREGETAVIQDVIGHIGFEVLPQWRGHGYGRVLLQYVQAMAPAPACGNWVLVCDADSPASVRTIEACGGQRLEDMPQPDGRV	failed
MKIEERKQYVKIEVQEGDTLWELADRIKGGKTADKHKFIEWVADKNNLPTSVIKPGDVLILPVAKQHSDQYQLAVVELEHHHHHH	not failed
MKIEEVRFGLVKIDGKEFDHDIVIYPSGRIERRMKEISKKKHGTSHKLDPEELEKYLVEDFDVLLVGTGIYGMLSLLPESKKLVEDKEVIEKPTKEALKLLEELWGKKRILAIIHVTC	not failed
MKIELLLLFLVFAWDGYFFLRYIIGLTRKYRTIQWNPTVSVIIPAYNEEENIESAIKAALSQDYPVSEVIVVDDGSEDKTYERALRMAQEDTRVKVIRIPHGGKARALNEGIKVARGEIIVTTDADSYMAKDAVRRLVERFYSPDIVGVGGQIRVVVESFLTLVQDIEHLRIAMYRRAKELEDLSLAPGPLSAFRREALDQIGGIAESIVEDYATTKLLKKVGKVVYAPKAKLFTRMPITLKELWRQRKRWFIGDLNHLEPKDYAILMLSDFIAFLDVILPLLFIVRGEFLLLGAFFGFEILTMLPPIIFEGGSIIEALSFPFILIFLAMFYLGIHIYGYLTKLNAKIFK	failed
MKIESAQIIELPKILDKRGNLSIIEEFKNIPFKIERTYWIYDVPGGESRGGHAYRENEEFIVALSGSFDVVLDDGNNKKIFSLNRSYYGLYVPKGLWREMNNFSTNSLALILSSTVYEEKDYIRDYNEFLKMKRKLEHHHHHH	failed
MKIESLDLPDEIKRFYENSGILELYPPQAEAVEKGLLEGKNLLAAIPTASGKTLLAELAMLKSVLNGGKALYIVPLRALASEKFRRFQEFSVLGMRVGISTGDYDRRDEGLGINDIIVATSEKTDSLLRNETAWMQEISVVVADEVHLIDSPDRGPTLEITLSKLRRMNPSCQVLALSATVGNADELAAWLDAELVLSEWRPTDLMEGVFYNGIFYCKDKEKPVGQPTKDEAVNLVLDTIKEGGQCLVFESSRKNCMGFAKKAVSAVKKTLSNEDRETLAGIADEIIENSETDVSSVLATCVRSGTAFHHAGLTTPLRELVENGFREGRIKIISSTPTLAAGLNLPARRVIIRSYRRYSSDSGMQPIPVLEYKQMAGRAGRPRLDPYGEAVLLAKSYEEFVFLFEKYIEAGAEDIWSKLGTENALRTHILSTISNGFARTREELMDFLEATFFAFQYSNFGLSAVVDECLDFLRREGMLEKDPDALVSTVFGKLVSRLYIDPLSAALIAKGLREAGTLTELTLLHLICSTPDMRLMYMRSQDYQEVNDYVMAHAGEFSKVPNPFNIAEYEWFLGEVKTSLLLMDWIHEKPENEICLKFGIGEGDIHATADIAEWIMHVTAQLAGLLDLKGAKEASELEKRIRYGAAPELMDLLDIRSVGRVRARKLYEAGFKSTAELAAASPEHIAVLVGPKITERIFKQIGRREAVSEFSDIEPLEKGSSDGQRTISDY	failed
MKIFIVGSTGRVGKSLLKSLSTTDYQIYAGARKVEQVPQYNNVKAVHFDVDWTPEEMAKQLHGIDAIINVSGSGGKSLLKVDLYGAVKLMQAAEKAEVKRFILLSTIFSLQPEKWIGAGFDALKDYYIAKHFADLYLTKETNLDYTIIQPGALTEEEATGLIDINDEVSASNTIGDVADTIKELVMTDHSIGKVISMHNGKTAIKEALESLLEHHHHHH	not failed
MKIGIIGAGFVARAIAKLALQNGHQVMLSNSRDPQSLFSLRPMIGCDIGTATQAALFGDIIVIAVPFTAIDKLPEQALQGKSVIDAVNYYTERDGKVAALDTRSTTTSELLAGYLPGAKITKAFNAITMTQLERDGLPAGSAHRRALPLAGDHEQEKTIVAELYDAFGFDVVDAGKLSEGWRFERNMPSYCVRMTKAELTTALALSSRLEHHHHHH	not failed
MKIGIIGVGKMASAIIKGLKQTPHELIISGSSLERSKEIAEQLALPYAMSHQDLIDQVDLVILGIKPQLFETVLKPLHFKQPIISMAAGISLQRLATFVGQDLPLLRIMPNMNAQILQSSTALTGNALVSQELQARVRDLTDSFGSTFDISEKDFDTFTALAGSSPAYIYLFIEALAKAGVKNGIPKAKALEIVTQTVLASASNLKTSSQSPHDFIDAICSPGGTTIAGLMELERLGLTATVSSAIDKTIDKAKSL	not failed
MKIGVLGLQGAVREHVRAIEACGAEAVIVKKSEQLEGLDGLVLPGGESTTMRRLIDRYGLMEPLKQFAAAGKPMFGTCAGLILLAKRIVGYDEPHLGLMDITVERNSFGRQRESFEAELSIKGVGDGFVGVFIRAPHIVEAGDGVDVLATYNDRIVAARQGQFLGCSFHPELTDDHRLMQYFLNMVKEAKMASSLK	not failed
MKIIELPIEFEFNGQKQCIYPSLIILHNELTLVDTGYPSFLPLIENAILKHGYEMKNLKNIIITHYDDDHIGAVYDFKVKYPNINVIASEIESNYINGDIKSERLVQAEEMLERMPNEEKEFGKWFIQQLKNIKHISVDEKVHDGQMILNNECQVVATPGHTSGHISLYFPNLDCVITGDAAVQENRELVIANPNFCLDIEKAKQSLNRIKSFKAAQYYCYHGGKLTV	failed
MKIIRTRQRPFMVIVDVVLTVLAWVGLLYLLVRGLIPLLDSHEGPRIEAGMLDALTTLQFYAWVAVLNAVLLISWARYRQRRNKSYPPRLPAPVVDDKRLSETFKLNDATFAQMRQPGTMIVHNDEEGGISHVTTQFYRILPEDQQHPPLRVEPPPRVIHLRSEGDEGKKTGED	failed
MKIKACIFDMDGTLVNSIMDIAFSMNSALSNLGYSKIELSKFNALVGRGFNKFVIDTLKLLSLEHDNPNLQEKLYKEFVKEYNKNLSFQTKPYENIKPLLETMNKLNIPIGILSNKNHEELINLVKNIFGNILFFEIRGYSKNFPPKPDPENALDMILELNAQKEEIAYIGDSDVDMLTALNAGFMPIGVSWGFRSVQELKESGAKHIIHNPLELLDLIK	failed

Source: a protein production outcome set (Wang et al. 2014)
